Square brackets hold non-standard residues; d marks the D form.
target: Aβ42 (UniProt P05067 672-713); assay: cell-based or functional assay
Sequence (P05067 672-713 limits assumed): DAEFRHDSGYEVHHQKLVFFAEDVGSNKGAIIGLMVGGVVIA

Binder | % inhibition of fibril formation (ThT), AP:Aβ42 1:1 | % inhibition of fibril formation (ThT), AP:Aβ42 1:10 | % inhibition of fibril formation (ThT), AP:Aβ42 1:100
Ac-RGN[dW]C[dE]S[dK]MNEYYGW[dM]L[dM]L[dT]MGR-NH2 (not fully specified (residue 5); printed as RGNwCeSkMNEYYGWmLmLtMGR; also: disulfide-linked homodimer via Cys5) [AP505d] | 100% | 79.5% | 51.4%
Ac-RGE[dL]N[dY]F[dW]MNEYYGW[dT]C[dN]M[dR]MGK-NH2 (also: homodimer: Cys17 disulfide-bonded to Cys17 of other copy) [AP536d] | 100% | 85.2% | 43.1%
Ac-[dR]G[dN]W[dN]E[dS]K[dM][dN][dE][dY][dY]G[dW]M[dL]M[dC]T[dM]G[dR]-NH2 (also: disulfide-linked homodimer (Cys19 to Cys19 of other copy), disulfide at 19, other end not in the chain) [AP506d] | 100% | 100% | 49.1%
Ac-RGE[dL]N[dY]F[dW]MNEYYGW[dT]C[dN]M[dR]MGK-NH2 (SMILES CSCC[C@H](NC(=O)[C@@H](CCCNC(=N)N)NC(=O)[C@H](CCSC)NC(=O)[C@@H](CC(N)=O)NC(=O)[C@H](CS)NC(=O)[C@H](NC(=O)[C@H](Cc1c[nH]c2ccccc12)NC(=O)CNC(=O)[C@H](Cc1ccc(O)cc1)NC(=O)[C@H](Cc1ccc(O)cc1)NC(=O)[C@H](CCC(=O)O)NC(=O)[C@H](CC(N)=O)NC(=O)[C@H](CCSC)NC(=O)[C@@H](Cc1c[nH]c2ccccc12)NC(=O)[C@H](Cc1ccccc1)NC(=O)[C@@H](Cc1ccc(O)cc1)NC(=O)[C@H](CC(N)=O)NC(=O)[C@@H](CC(C)C)NC(=O)[C@H](CCC(=O)O)NC(=O)CNC(=O)[C@H](CCCNC(=N)N)NC(C)=O)[C@H](C)O)C(=O)NCC(=O)N[C@@H](CCCCN)C(N)=O) [AP536m] | 74.1% | 21.4% | 0%
Ac-RGN[dW]N[dE]S[dK]MNEYYGW[dM]L[dM]T[dC]MGR-NH2 (SMILES CSCC[C@H](NC(=O)[C@@H](CCCCN)NC(=O)[C@H](CO)NC(=O)[C@@H](CCC(=O)O)NC(=O)[C@H](CC(N)=O)NC(=O)[C@@H](Cc1c[nH]c2ccccc12)NC(=O)[C@H](CC(N)=O)NC(=O)CNC(=O)[C@H](CCCNC(=N)N)NC(C)=O)C(=O)N[C@@H](CC(N)=O)C(=O)N[C@@H](CCC(=O)O)C(=O)N[C@@H](Cc1ccc(O)cc1)C(=O)N[C@@H](Cc1ccc(O)cc1)C(=O)NCC(=O)N[C@@H](Cc1c[nH]c2ccccc12)C(=O)N[C@H](CCSC)C(=O)N[C@@H](CC(C)C)C(=O)N[C@H](CCSC)C(=O)N[C@H](C(=O)N[C@H](CS)C(=O)N[C@@H](CCSC)C(=O)NCC(=O)N[C@@H](CCCNC(=N)N)C(N)=O)[C@@H](C)O) [AP503m] | 61.8% | 16.2% | 0%
Ac-RGN[dC]N[dE]S[dK]MNEYYGW[dM]L[dM]L[dT]MGR-NH2 (also: disulfide-linked homodimer (Cys4 to Cys4 of other copy), disulfide at 4, other end not in the chain) [AP504d] | 100% | 100% | 64.3%
Ac-RGE[dL]N[dY]F[dW]MNECYGW[dT]M[dN]M[dR]MGK-NH2 (also: homodimer: Cys12 disulfide-bonded to Cys12 of other copy) [AP537d] | 90.2% | 82.3% | 72%
Ac-RGN[dW]N[dE]S[dK]MNEYYGW[dM]L[dM]C[dT]MGR-NH2 (also: disulfide-linked homodimer via Cys19) [AP501d] | 90% | 81.4% | 48.2%
Ac-RGN[dW]N[dE]S[dK]MNEYYGW[dM]L[dM]T[dC]MGR-NH2 (also: disulfide-linked homodimer (Cys20 to Cys20 of other copy), disulfide at 20, other end not in the chain) [AP503d] | 100% | 100% | 70.1%

The next lines start with the values.

% inhibition of fibril formation (ThT), AP:Aβ42 1:1 | % inhibition of fibril formation (ThT), AP:Aβ42 1:10 | % inhibition of fibril formation (ThT), AP:Aβ42 1:100 | Binder
23.8% | 0% | 0% | Ac-RGN[dW]N[dE]S[dK]M[dN][dE][dY][dY]GW[dM]L[dM]C[dT]MGR-NH2 (SMILES CSCC[C@H](NC(=O)[C@@H](CCCCN)NC(=O)[C@H](CO)NC(=O)[C@@H](CCC(=O)O)NC(=O)[C@H](CC(N)=O)NC(=O)[C@@H](Cc1c[nH]c2ccccc12)NC(=O)[C@H](CC(N)=O)NC(=O)CNC(=O)[C@H](CCCNC(=N)N)NC(C)=O)C(=O)N[C@H](CC(N)=O)C(=O)N[C@H](CCC(=O)O)C(=O)N[C@H](Cc1ccc(O)cc1)C(=O)N[C@H](Cc1ccc(O)cc1)C(=O)NCC(=O)N[C@@H](Cc1c[nH]c2ccccc12)C(=O)N[C@H](CCSC)C(=O)N[C@@H](CC(C)C)C(=O)N[C@H](CCSC)C(=O)N[C@@H](CS)C(=O)N[C@@H](C(=O)N[C@@H](CCSC)C(=O)NCC(=O)N[C@@H](CCCNC(=N)N)C(N)=O)[C@H](C)O) [AP502m]
100% | 88.4% | 47.1% | Ac-RGN[dW]N[dE]S[dK]M[dN][dE][dY][dY]GW[dM]L[dM]C[dT]MGR-NH2 (also: disulfide-linked homodimer via Cys19) [AP502d]
30% | 19.2% | 0% | Ac-RGN[dC]N[dE]S[dK]MNEYYGW[dM]L[dM]L[dT]MGR-NH2 (SMILES CSCC[C@H](NC(=O)[C@@H](CCCCN)NC(=O)[C@H](CO)NC(=O)[C@@H](CCC(=O)O)NC(=O)[C@H](CC(N)=O)NC(=O)[C@@H](CS)NC(=O)[C@H](CC(N)=O)NC(=O)CNC(=O)[C@H](CCCNC(=N)N)NC(C)=O)C(=O)N[C@@H](CC(N)=O)C(=O)N[C@@H](CCC(=O)O)C(=O)N[C@@H](Cc1ccc(O)cc1)C(=O)N[C@@H](Cc1ccc(O)cc1)C(=O)NCC(=O)N[C@@H](Cc1c[nH]c2ccccc12)C(=O)N[C@H](CCSC)C(=O)N[C@@H](CC(C)C)C(=O)N[C@H](CCSC)C(=O)N[C@@H](CC(C)C)C(=O)N[C@@H](C(=O)N[C@@H](CCSC)C(=O)NCC(=O)N[C@@H](CCCNC(=N)N)C(N)=O)[C@H](C)O) [AP504m]
67.6% | 0% | 0% | Ac-[dR]G[dN]W[dN]E[dS]K[dM][dN][dE][dY][dY]G[dW]M[dL]M[dC]T[dM]G[dR]-NH2 (SMILES CSCC[C@H](NC(=O)[C@@H](Cc1c[nH]c2ccccc12)NC(=O)CNC(=O)[C@@H](Cc1ccc(O)cc1)NC(=O)[C@@H](Cc1ccc(O)cc1)NC(=O)[C@@H](CCC(=O)O)NC(=O)[C@@H](CC(N)=O)NC(=O)[C@@H](CCSC)NC(=O)[C@H](CCCCN)NC(=O)[C@@H](CO)NC(=O)[C@H](CCC(=O)O)NC(=O)[C@@H](CC(N)=O)NC(=O)[C@H](Cc1c[nH]c2ccccc12)NC(=O)[C@@H](CC(N)=O)NC(=O)CNC(=O)[C@@H](CCCNC(=N)N)NC(C)=O)C(=O)N[C@H](CC(C)C)C(=O)N[C@@H](CCSC)C(=O)N[C@H](CS)C(=O)N[C@H](C(=O)N[C@H](CCSC)C(=O)NCC(=O)N[C@H](CCCNC(=N)N)C(N)=O)[C@@H](C)O) [AP506m]
54.2% | 0% | 0% | Ac-RGE[dL]N[dY]F[dW]MNECYGW[dT]M[dN]M[dR]MGK-NH2 (SMILES CSCC[C@H](NC(=O)[C@@H](CCCNC(=N)N)NC(=O)[C@H](CCSC)NC(=O)[C@@H](CC(N)=O)NC(=O)[C@H](CCSC)NC(=O)[C@H](NC(=O)[C@H](Cc1c[nH]c2ccccc12)NC(=O)CNC(=O)[C@H](Cc1ccc(O)cc1)NC(=O)[C@H](CS)NC(=O)[C@H](CCC(=O)O)NC(=O)[C@H](CC(N)=O)NC(=O)[C@H](CCSC)NC(=O)[C@@H](Cc1c[nH]c2ccccc12)NC(=O)[C@H](Cc1ccccc1)NC(=O)[C@@H](Cc1ccc(O)cc1)NC(=O)[C@H](CC(N)=O)NC(=O)[C@@H](CC(C)C)NC(=O)[C@H](CCC(=O)O)NC(=O)CNC(=O)[C@H](CCCNC(=N)N)NC(C)=O)[C@H](C)O)C(=O)NCC(=O)N[C@@H](CCCCN)C(N)=O) [AP537m]
26.8% | 16.4% | 0% | Ac-RGN[dW]C[dE]S[dK]MNEYYGW[dM]L[dM]L[dT]MGR-NH2 (not fully specified (residue 5); printed as RGNwCeSkMNEYYGWmLmLtMGR) [AP505m]

Source: patent US20230048960A1 (University of Washington, published 2023)
